Laboratory results taken from patent US20110144037A1 (BOARD OF REGENTS OF THE UNIVERSITY OF OKLAHOMA, published 2011).
Where no end group is shown, it is not given here. [ ]: non-standard residue; d: D form. Pip = O=C(O)[C@@H]1CCCCN1; AEEA = NCCOCCOCC(=O)O

What was measured:
[1] = molecular target: dipeptidyl peptidase IV (DPPIV); test: ratio of Ki for DPPIV to Ki for APCE/FAP
[2] = molecular target: T1, antiplasmin-cleaving enzyme (APCE) (human, UniProt Q12884 24-760, Natural plasma glycoprotein; glycans are not carried by the letters. The active enzyme is known as a homodimer; one chain is given.); test: inhibition of APCE activity, AMC fluorogenic substrate
T1 construct: The range 24-760 is derived from the statement that APCE lacks the first 23 residues of FAP; also called α2-antiplasmin cleaving enzyme; APCE/FAP
T1 sequence: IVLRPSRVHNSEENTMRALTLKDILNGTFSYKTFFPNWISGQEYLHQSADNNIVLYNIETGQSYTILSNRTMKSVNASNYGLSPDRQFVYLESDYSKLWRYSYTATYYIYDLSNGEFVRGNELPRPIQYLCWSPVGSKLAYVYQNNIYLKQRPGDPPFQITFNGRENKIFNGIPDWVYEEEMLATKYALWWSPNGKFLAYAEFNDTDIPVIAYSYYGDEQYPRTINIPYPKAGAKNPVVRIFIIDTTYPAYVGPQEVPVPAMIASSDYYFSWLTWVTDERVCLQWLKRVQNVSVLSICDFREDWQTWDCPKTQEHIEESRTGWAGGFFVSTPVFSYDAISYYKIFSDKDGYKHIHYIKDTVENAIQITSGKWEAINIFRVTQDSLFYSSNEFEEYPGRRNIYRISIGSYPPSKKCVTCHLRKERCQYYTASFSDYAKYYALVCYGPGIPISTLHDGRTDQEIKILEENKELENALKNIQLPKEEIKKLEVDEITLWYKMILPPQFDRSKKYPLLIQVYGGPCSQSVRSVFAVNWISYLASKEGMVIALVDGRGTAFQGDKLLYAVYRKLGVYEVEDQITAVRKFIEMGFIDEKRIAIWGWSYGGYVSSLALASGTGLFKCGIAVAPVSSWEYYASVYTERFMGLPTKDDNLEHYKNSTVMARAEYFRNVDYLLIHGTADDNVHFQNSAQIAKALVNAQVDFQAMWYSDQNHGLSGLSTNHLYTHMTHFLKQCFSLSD

[3] = molecular target: dipeptidyl peptidase IV (DPPIV); test: inhibition of DPPIV activity, AMC fluorogenic substrate
[4] = molecular target: T1, antiplasmin-cleaving enzyme (APCE); test: inhibition of APCE activity, AMC fluorogenic substrate, competitive fit
Experimental: Enzyme assays. APCE or DDPIV was incubated in 25 mM sodium phosphate buffer, pH 7.5, containing 1.0 mM EDTA and 4% methanol in a total volume of 200 μl for 20 min at 22° C., using fluorescent substrates […]-AMC (SEQ ID NO.:4) (12.5-100 μM); […]-AMC (SEQ ID NO.:5) (12.5-100 μM); Z-Gly-Pro-AMC (25-200 μM); or GP-AMC (62.5-1000 μM). […] Fluorescence was monitored with time at excitation and emission wavelengths of 360 and 460 nm using a black-sided, 96-well plate in a BIO-TEK FL600 fluorescence plate reader. For standard curves, dilutions of AMC (7-amino-4-methylcoumarin) were prepared in the same assay buffer and corresponding fluorescence was measured. The substrates in five different concentrations were mixed with four different concentrations of inhibitors around the expected Ki values; the enzyme was added and enzymatically released AMC fluorescence was recorded. Competitive inhibition was established by Lineweaver-Burk plot. Therefore, enzyme kinetic parameters were computed by fitting data to the following equation, employing the program PRISM, GraphPad: […]

Chain of dipeptidyl peptidase IV (DPPIV) (P27487 29-766): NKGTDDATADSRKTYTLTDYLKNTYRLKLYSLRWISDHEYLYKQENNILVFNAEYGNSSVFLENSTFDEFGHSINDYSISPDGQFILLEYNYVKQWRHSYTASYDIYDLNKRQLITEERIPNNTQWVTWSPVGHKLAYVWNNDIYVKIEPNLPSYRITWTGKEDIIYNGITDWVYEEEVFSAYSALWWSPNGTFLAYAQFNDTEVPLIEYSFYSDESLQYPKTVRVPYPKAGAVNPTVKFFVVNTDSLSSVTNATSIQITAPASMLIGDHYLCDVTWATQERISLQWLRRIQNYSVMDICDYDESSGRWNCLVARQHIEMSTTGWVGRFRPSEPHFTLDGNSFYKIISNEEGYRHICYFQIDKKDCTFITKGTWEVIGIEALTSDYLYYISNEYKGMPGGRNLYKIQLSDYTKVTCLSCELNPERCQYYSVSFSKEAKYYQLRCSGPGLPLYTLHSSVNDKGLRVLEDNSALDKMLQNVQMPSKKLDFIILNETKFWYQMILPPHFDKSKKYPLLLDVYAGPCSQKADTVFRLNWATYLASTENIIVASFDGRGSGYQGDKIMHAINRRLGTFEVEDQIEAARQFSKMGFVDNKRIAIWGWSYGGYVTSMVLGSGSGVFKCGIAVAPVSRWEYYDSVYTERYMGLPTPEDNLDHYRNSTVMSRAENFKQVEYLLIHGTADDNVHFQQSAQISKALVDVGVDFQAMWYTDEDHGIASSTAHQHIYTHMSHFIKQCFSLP

Molecule: Ac-Arg-(8-amino-3,6-dioxaoctanoyl)-D-Ala-L-boroPro (peptide)
- Selectivity, Ki (DPPIV)/Ki (APCE/FAP) [1]: 1080
- Ki [2]: 5.7 nM
- Ki [3]: 6130 nM

Molecule: Ac-Arg-Gly-Gly-DL-boroPro (peptide)
- Selectivity, Ki (DPPIV)/Ki (APCE/FAP) [1]: 14.9
- Ki [2]: 22.9 nM
- Ki [3]: 341 nM

Molecule: Ac-Arg-Gly-Gly-L-boroPro (peptide)
- Selectivity, Ki (DPPIV)/Ki (APCE/FAP) [1]: 18.7
- Ki [2]: 17.2 nM
- Ki [3]: 322 nM

Molecule: Ac-Arg-peg-D-Ala-D-boroPro (peptide)
- Selectivity, Ki (DPPIV)/Ki (APCE/FAP) [1]: 108
- Ki [2]: 189 nM
- Ki [3]: 20500 nM

Molecule: Ac-Arg-peg-D-Ala-DL(25:75%)-boroPro (peptide)
- Ki [2]: 7.7 nM

Molecule: Ac-Arg-peg-D-Ala-DL(50:50%)-boroPro (peptide)
- Selectivity, Ki (DPPIV)/Ki (APCE/FAP) [1]: 1180
- Ki [2]: 9.5 nM
- Ki [3]: 11200 nM

Molecule: Ac-Arg-peg-D-Ala-DL(75:25%)-boroPro (peptide)
- Ki [2]: 18.3 nM

Molecule: Ac-Arg-peg-D-Asp-L-boroPro (peptide)
- Selectivity, Ki (DPPIV)/Ki (APCE/FAP) [1]: 5.2
- Ki [2]: 1380 nM
- Ki [3]: 7130 nM

Molecule: Ac-Arg-peg-Gly-DL-boroPro (peptide)
- Selectivity, Ki (DPPIV)/Ki (APCE/FAP) [1]: 371
- Ki [2]: 3.1 nM
- Ki [3]: 1150 nM

Molecule: Ac-Arg-peg-Gly-L-boroPro (peptide)
- Selectivity, Ki (DPPIV)/Ki (APCE/FAP) [1]: 244
- Ki [2]: 1.8 nM
- Ki [3]: 440 nM

Molecule: Ac-Arg-peg-Ser-Gly-L-boroPro (peptide)
- Selectivity, Ki (DPPIV)/Ki (APCE/FAP) [1]: 319
- Ki [2]: 2.7 nM
- Ki [3]: 861 nM

Molecule: Ac-Gly-L-boroPro (peptide)
- Selectivity, Ki (DPPIV)/Ki (APCE/FAP) [1]: 15.2
- Ki [2]: 20.7 nM
- Ki [3]: 314 nM

Molecule: FG-peg-G-pyrrolidide (peptide)
- Ki [4]: 703000 nM

Molecule: FR-peg-G-[r]fluoropyrrolidide (peptide)
- Ki [4]: 53800 nM

Molecule: FR-peg-G-[s]fluoropyrrolidide (peptide)
- Ki [4]: 55300 nM

Molecule: FR-peg-G-piperidide (peptide)
- Ki [4]: 264000 nM

Molecule: FR-peg-G-pyrrolidide (peptide)
- Ki [4]: 67700 nM

B1: FR-peg-G-pipecolinyl-NQEQV (peptide)
peptide: FR[AEEA]G[Pip]NQEQV-OH
modifications: N-terminus assumed
SMILES: CC(C)[C@H](NC(=O)[C@H](CCC(N)=O)NC(=O)[C@H](CCC(=O)O)NC(=O)[C@H](CCC(N)=O)NC(=O)[C@H](CC(N)=O)NC(=O)[C@@H]1CCCCN1C(=O)CNC(=O)COCCOCCNC(=O)[C@H](CCCNC(=N)N)NC(=O)[C@@H](N)Cc1ccccc1)C(=O)O
- Ki [4]: 14800 nM

B2: FR-peg-G-pipecolinyl-NQGQV (peptide)
peptide: FR[AEEA]G[Pip]NQGQV-OH
modifications: N-terminus assumed
SMILES: CC(C)[C@H](NC(=O)[C@H](CCC(N)=O)NC(=O)CNC(=O)[C@H](CCC(N)=O)NC(=O)[C@H](CC(N)=O)NC(=O)[C@@H]1CCCCN1C(=O)CNC(=O)COCCOCCNC(=O)[C@H](CCCNC(=N)N)NC(=O)[C@@H](N)Cc1ccccc1)C(=O)O
- Ki [4]: 14500 nM

B3: FG-peg-G-pipecolinyl-NQEQV (peptide)
peptide: FG[AEEA]G[Pip]NQEQV-OH
modifications: N-terminus assumed
SMILES: CC(C)[C@H](NC(=O)[C@H](CCC(N)=O)NC(=O)[C@H](CCC(=O)O)NC(=O)[C@H](CCC(N)=O)NC(=O)[C@H](CC(N)=O)NC(=O)[C@@H]1CCCCN1C(=O)CNC(=O)COCCOCCNC(=O)CNC(=O)[C@@H](N)Cc1ccccc1)C(=O)O
- Ki [4]: 57100 nM

B4: FRQLTS-G pipecolinyl-NQEQV (peptide)
peptide: FRQLTSG[Pip]NQEQV-OH
modifications: N-terminus assumed
SMILES: CC(C)C[C@H](NC(=O)[C@H](CCC(N)=O)NC(=O)[C@H](CCCNC(=N)N)NC(=O)[C@@H](N)Cc1ccccc1)C(=O)N[C@H](C(=O)N[C@@H](CO)C(=O)NCC(=O)N1CCCC[C@H]1C(=O)N[C@@H](CC(N)=O)C(=O)N[C@@H](CCC(N)=O)C(=O)N[C@@H](CCC(=O)O)C(=O)N[C@@H](CCC(N)=O)C(=O)N[C@H](C(=O)O)C(C)C)[C@@H](C)O
- Ki [4]: 14000 nM
